Square brackets hold non-standard residues; d marks the D form. Ends that are not written are not given here. Aib = CC(C)(N)C(=O)O
Columns and labels:
[1] = target: T1, human GIP receptor (Homo sapiens, UniProt P48546); experiment: In vitro cAMP activity in human GIP receptor-expressing CHO cells (LANCE cAMP kit); type: cell-based; conditions: long-acting conjugates (peptide-PEG-immunoglobulin Fc); relative titer from cAMP EC50, human GIP receptor CHO cells
T1 construct: expressed in transfected cells; host or cells: Chinese hamster ovary (CHO)
T1 sequence (P48546 22-466): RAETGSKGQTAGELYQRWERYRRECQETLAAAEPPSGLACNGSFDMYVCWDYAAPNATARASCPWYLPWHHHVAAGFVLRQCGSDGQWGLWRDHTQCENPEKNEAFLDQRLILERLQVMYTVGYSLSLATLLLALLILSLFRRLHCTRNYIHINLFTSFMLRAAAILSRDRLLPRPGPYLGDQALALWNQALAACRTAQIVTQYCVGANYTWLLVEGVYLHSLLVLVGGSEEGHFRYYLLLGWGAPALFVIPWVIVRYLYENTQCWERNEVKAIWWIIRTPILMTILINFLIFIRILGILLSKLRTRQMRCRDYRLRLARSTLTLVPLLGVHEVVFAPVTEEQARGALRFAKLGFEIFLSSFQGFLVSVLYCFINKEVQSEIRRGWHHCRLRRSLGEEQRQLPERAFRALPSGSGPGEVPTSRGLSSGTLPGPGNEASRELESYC
Method: (§1) In order to measure the activity of the GLP-1/GIP dual agonist prepared in Example 1, an in vitro cell activity was measured using cell lines transformed with the GLP-1 receptor and the GIP receptor, respectively. The cell lines are transformed to express human GLP-1 and human GIP receptor genes in Chinese hamster ovary (CHO), respectively, and are suitable for measuring the activities of GLP-1 and GIP. Therefore, the activity for each part was measured using each transformed cell line.
(§2) To measure the GIP activity of the dual agonist prepared in Example 1, human GIP was diluted from 50 nM to 0.000095 nM by 4-fold serial dilution, and the dual agonist prepared in Example 1 was diluted from 50 nM to 0.000048 nM by 4-fold serial dilution. The culture medium was removed from the cultured human GIP receptor-expressing CHO cells, 5 μl of each of the serially diluted materials was added to the cells, and then 5 μl of buffer containing cAMP antibody was added to the cells, followed by 15 minutes of incubation at room temperature. Then, cells were lysed by adding 10 μl of detection mix containing cell lysis buffer, and reacted at room temperature for 90 minutes. The cell lysate after the reaction had been completed, was applied to the LANCE cAMP kit (PerkinElmer, USA) to calculate the EC50 value through the accumulated cAMP, and then compared with each other.
(§3) In order to measure the activity of the long-acting conjugate of SEQ ID NOs: 20, 36, and 40 prepared in Example 3, the cell activity in vitro was measured using cell lines transformed with the GLP-1 receptor and the GIP receptor, respectively, in the same manner as in Example 2.
(§4) The cell lines were transformed to express the human GLP-1 receptor and the human GIP receptor genes in Chinese hamster ovary (CHO), respectively, and were each the same cell line used in Example 2. Activity for each part was measured using each transformed cell line. […]

[2] = target: T2, human GLP-1 receptor (Homo sapiens, UniProt P43220); experiment: In vitro cAMP activity in human GLP-1 receptor-expressing CHO cells (LANCE cAMP kit); type: cell-based; conditions: long-acting conjugates (peptide-PEG-immunoglobulin Fc); relative titer from cAMP EC50, human GLP-1 receptor CHO cells
T2 construct: expressed in transfected cells; host or cells: Chinese hamster ovary (CHO)
Method: as §1
as §2, with “GLP-1” for “GIP”, “0.000048” for “0.000095”
as §3, §4

T2 sequence (P43220 24-463): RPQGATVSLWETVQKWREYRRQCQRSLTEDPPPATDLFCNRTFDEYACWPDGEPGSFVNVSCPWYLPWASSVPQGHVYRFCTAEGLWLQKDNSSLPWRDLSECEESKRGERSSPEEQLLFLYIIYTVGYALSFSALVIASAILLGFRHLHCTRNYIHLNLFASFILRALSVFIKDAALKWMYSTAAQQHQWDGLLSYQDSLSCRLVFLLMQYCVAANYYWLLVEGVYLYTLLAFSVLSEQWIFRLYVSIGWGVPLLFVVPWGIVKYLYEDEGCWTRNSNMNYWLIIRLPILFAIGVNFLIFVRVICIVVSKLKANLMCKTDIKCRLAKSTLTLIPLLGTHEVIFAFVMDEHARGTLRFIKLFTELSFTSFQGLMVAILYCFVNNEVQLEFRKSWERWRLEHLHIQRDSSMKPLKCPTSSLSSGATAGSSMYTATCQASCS

“20 (Y[Aib]EGTFTSDYSI[Aib]LDKQAA[Aib]AFVQWLIAGGPSSGAPPPSC) [compound 20]” was tested, and the “In vitro activity compared to native peptide (%) vs human GIP” value (“In vitro activity … (%) vs human GIP” below) [1] was 62.1% and the “In vitro activity compared to native peptide (%) vs human GLP-1” value (from here on “In vitro activity … (%) vs human GLP-1”) [2] was 7.5%.

In the case of “36 (Y[Aib]EGTFTSDYSI[Aib]LDKQAQQAFVQWLIAGGPSSGAPPPSC) [compound 36]”, the “In vitro activity … (%) vs human GIP” value [1] is reported as 26.9% and the “In vitro activity … (%) vs human GLP-1” value [2] is reported as 3.9%.

In the case of “40 (Y[Aib]EGTFTSDYSIALEKQAQRDFVNWLLAGGPSSGAPPPSC) [compound 40]”, the “In vitro activity … (%) vs human GIP” value [1] is reported as 24.7% and the “In vitro activity … (%) vs human GLP-1” value [2] is reported as 10.1%.
